# Source: patent US20190194323A1 (ALLAKOS, published 2019)
# Molecular target: T1, Siglec-7-ECD (human, UniProt Q9Y286 19-353)
# T1 construct: also called p75; AIRM
# Assay: monovalent Fab; bio-layer interferometry (ForteBio) per Methods
# T1 sequence (Q9Y286 19-353 limits assumed): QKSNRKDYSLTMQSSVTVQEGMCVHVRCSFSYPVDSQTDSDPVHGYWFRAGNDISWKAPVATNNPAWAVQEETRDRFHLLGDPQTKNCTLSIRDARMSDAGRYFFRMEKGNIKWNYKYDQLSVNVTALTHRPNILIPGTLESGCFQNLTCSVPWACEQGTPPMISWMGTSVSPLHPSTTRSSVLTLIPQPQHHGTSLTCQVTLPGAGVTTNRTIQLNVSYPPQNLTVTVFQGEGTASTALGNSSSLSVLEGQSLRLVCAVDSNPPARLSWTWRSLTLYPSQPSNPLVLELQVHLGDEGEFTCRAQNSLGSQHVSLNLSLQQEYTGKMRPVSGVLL
row,Binder,Kd [nM]
1,"humanized 16H11-derived Fab, VH AK446-7 / VL AK418-2 (Fab, V domains shown, Measured as monovalent Fab; also called No. 33; AK446-7/AK418-2) VH: QVQLVQSGAEVKKPGSSVKVSCKASGYDFSNFWMNWVRQAPGQGLEWMGQIYPGDGEIKYNQKFQGRVTITADESTSTAYMELSSLRSEDTAVYYCARDDYLRAMDIWGQGTMVTVSS VL: DIQMTQSPSSLSASVGDRVTITCRASGNIHNYLAWYQQKPGKAPKFLLYSAKRLESGVPSRFSGSGSGTDYTLTISSLQPEDFATYYCQHFWSSPYTFGGGTKVEIK",< 0.075
2,"humanized 16H11-derived Fab, VH AK387-11 / VL AK418-2 (Fab, V domains shown, Measured as monovalent Fab; also called No. 32; VH387-11 and VL418-2) VH: QVQLVQSGAEVKKPGSSVKVSCKGSGYDFSNFWMNWVRQAPGQGLEWMGQIYPGDGEIKYNQKFQGRVTLTADESTSTAYMELSSLRSEDTAVYFCARDDYLRAMDYWGQGTLVTVSS VL: DIQMTQSPSSLSASVGDRVTITCRASGNIHNYLAWYQQKPGKAPKFLLYSAKRLESGVPSRFSGSGSGTDYTLTISSLQPEDFATYYCQHFWSSPYTFGGGTKVEIK",< 0.075
3,"humanized 16H11-derived Fab, VH AK410-1 / VL AK418-2 (Fab, V domains shown, Measured as monovalent Fab; also called No. 1; AK410-1/AK418-2) VH: QVQLVQSGAEVKKPGSSVKVSCKASGYDFSNFWMNWVRQAPGQGLEWMGGIYPGDGEINYAQKFQGRVTITADESTSTAYMELSSLRSEDTAVYYCARDDYLRAMDYWGQGTLVTVSS VL: DIQMTQSPSSLSASVGDRVTITCRASGNIHNYLAWYQQKPGKAPKFLLYSAKRLESGVPSRFSGSGSGTDYTLTISSLQPEDFATYYCQHFWSSPYTFGGGTKVEIK",0.25 to 0.5
4,"humanized 16H11-derived Fab, VH AK417-8 / VL AK439-5 (Fab, V domains shown, Measured as monovalent Fab; also called No. 22) VH: QVQLVQSGAEVKKPGSSVKVSCKASGYDFSNFWMNWVRQAPGQGLEWMGGIYPGDGEINYAQKFQGRVTITADESTSTAYMELSSLRSEDTAVYYCARDDYLRAMDVWGQGTMVTVSS VL: DIQMTQSPSSLSASVGDRVTITCRASQNIHNYLAWYQQKPGKAPKFLLYSAKRLEDGVPSRFSGSGSGTDYTLTISSLQPEDFATYYCQHFWSSPYTFGQGTKLEIK",0.25
5,"humanized 16H11-derived Fab, VH AK417-17 / VL AK421-3 (Fab, V domains shown, Measured as monovalent Fab; also called No. 5) VH: QVQLVQSGAEVKKPGSSVKVSCKASGYDFSNFWMNWVRQAPGQGLEWMGGIYPGDGEINYAQKFQGRVTITADESTSTAYMELSSLRSEDTAVYYCARDDYLRAMDIWGQGTMVTVSS VL: DIQMTQSPSSLSASVGDRVTITCRASGNIHNYLAWYQQKPGKAPKFLLYSAKRLESGVPSRFSGSGSGTDYTLTISSLQPEDFATYYCQHFWSSPYTFGQGTKLEIK",0.25 to 0.5
6,"humanized 16H11-derived Fab, VH AK417-17 / VL AK424-1 (Fab, V domains shown, Measured as monovalent Fab; also called No. 7) VH: QVQLVQSGAEVKKPGSSVKVSCKASGYDFSNFWMNWVRQAPGQGLEWMGGIYPGDGEINYAQKFQGRVTITADESTSTAYMELSSLRSEDTAVYYCARDDYLRAMDIWGQGTMVTVSS VL: DIQMTQSPSSLSASVGDRVTITCRASGNIHNYLAWYQQKPGKAPKLLLYSAKRLASGVPSRFSGSGSGTDYTLTISSLQPEDFATYYCQHFWSSPYTFGGGTKVEIK",> 0.5
7,"humanized 16H11-derived Fab, VH AK417-17 / VL AK425-3 (Fab, V domains shown, Measured as monovalent Fab; also called No. 8) VH: QVQLVQSGAEVKKPGSSVKVSCKASGYDFSNFWMNWVRQAPGQGLEWMGGIYPGDGEINYAQKFQGRVTITADESTSTAYMELSSLRSEDTAVYYCARDDYLRAMDIWGQGTMVTVSS VL: DIQMTQSPSSLSASVGDRVTITCRASGNIHNYLAWYQQKPGKAPKLLLYSAKRLEDGVPSRFSGSGSGTDYTLTISSLQPEDFATYYCQHFWSSPYTFGGGTKVEIK",> 0.5
8,"humanized 16H11-derived Fab, VH AK417-17 / VL AK426-2 (Fab, V domains shown, Measured as monovalent Fab; also called No. 9) VH: QVQLVQSGAEVKKPGSSVKVSCKASGYDFSNFWMNWVRQAPGQGLEWMGGIYPGDGEINYAQKFQGRVTITADESTSTAYMELSSLRSEDTAVYYCARDDYLRAMDIWGQGTMVTVSS VL: DIQMTQSPSSLSASVGDRVTITCRASQNIHNYLAWYQQKPGKAPKLLLYSAKRLASGVPSRFSGSGSGTDYTLTISSLQPEDFATYYCQHFWSSPYTFGGGTKVEIK",> 0.5
9,"humanized 16H11-derived Fab, VH AK417-17 / VL AK427-1 (Fab, V domains shown, Measured as monovalent Fab; also called No. 10) VH: QVQLVQSGAEVKKPGSSVKVSCKASGYDFSNFWMNWVRQAPGQGLEWMGGIYPGDGEINYAQKFQGRVTITADESTSTAYMELSSLRSEDTAVYYCARDDYLRAMDIWGQGTMVTVSS VL: DIQMTQSPSSLSASVGDRVTITCRASQNIHNYLAWYQQKPGKAPKLLLYSAKRLEDGVPSRFSGSGSGTDYTLTISSLQPEDFATYYCQHFWSSPYTFGGGTKVEIK",> 0.5
10,"humanized 16H11-derived Fab, VH AK417-17 / VL AK439-5 (Fab, V domains shown, Measured as monovalent Fab; also called No. 21) VH: QVQLVQSGAEVKKPGSSVKVSCKASGYDFSNFWMNWVRQAPGQGLEWMGGIYPGDGEINYAQKFQGRVTITADESTSTAYMELSSLRSEDTAVYYCARDDYLRAMDIWGQGTMVTVSS VL: DIQMTQSPSSLSASVGDRVTITCRASQNIHNYLAWYQQKPGKAPKFLLYSAKRLEDGVPSRFSGSGSGTDYTLTISSLQPEDFATYYCQHFWSSPYTFGQGTKLEIK",0.25 to 0.5
11,"humanized 16H11-derived Fab, VH AK438-4 / VL AK418-2 (Fab, V domains shown, Measured as monovalent Fab; also called No. 17; VH438-4 and VL418-2) VH: QVQLVQSGAEVKKPGSSVKVSCKASGYDFSNFWMNWVRQAPGQGLEWMGQIYPGDGEIKYNQKFQGRVTLTADESTSTAYMELSSLRSEDTAVYFCARDDYLRAMDYWGQGTLVTVSS VL: DIQMTQSPSSLSASVGDRVTITCRASGNIHNYLAWYQQKPGKAPKFLLYSAKRLESGVPSRFSGSGSGTDYTLTISSLQPEDFATYYCQHFWSSPYTFGGGTKVEIK",< 0.075
12,"humanized 16H11-derived Fab, VH AK440-2 / VL AK418-2 (Fab, V domains shown, Measured as monovalent Fab; also called No. 18; VH440-2 and VL418-2) VH: QVQLVQSGAEVKKPGSSVKVSCKGSGYDFSNFWMNWVRQAPGQGLEWMGQIYPGDGEIKYNQKFQGRVTITADESTSTAYMELSSLRSEDTAVYFCARDDYLRAMDYWGQGTLVTVSS VL: DIQMTQSPSSLSASVGDRVTITCRASGNIHNYLAWYQQKPGKAPKFLLYSAKRLESGVPSRFSGSGSGTDYTLTISSLQPEDFATYYCQHFWSSPYTFGGGTKVEIK",< 0.1
13,"humanized 16H11-derived Fab, VH AK441-2 / VL AK418-2 (Fab, V domains shown, Measured as monovalent Fab; also called No. 19; VH441-2 and VL418-2) VH: QVQLVQSGAEVKKPGSSVKVSCKGSGYDFSNFWMNWVRQAPGQGLEWMGQIYPGDGEIKYNQKFQGRVTLTADESTSTAYMELSSLRSEDTAVYYCARDDYLRAMDIWGQGTMVTVSS VL: DIQMTQSPSSLSASVGDRVTITCRASGNIHNYLAWYQQKPGKAPKFLLYSAKRLESGVPSRFSGSGSGTDYTLTISSLQPEDFATYYCQHFWSSPYTFGGGTKVEIK",< 0.075
14,"humanized 16H11-derived Fab, VH AK443-1 / VL AK418-2 (Fab, V domains shown, Measured as monovalent Fab; also called No. 23; VH443-1 and VL418-2) VH: QVQLVQSGAEVKKPGSSVKVSCKGSGYDFSNFWMNWVRQAPGQGLEWMGQIYPGDGEIKYNQKFQGRVTITADESTSTAYMELSSLRSEDTAVYYCARDDYLRAMDIWGQGTMVTVSS VL: DIQMTQSPSSLSASVGDRVTITCRASGNIHNYLAWYQQKPGKAPKFLLYSAKRLESGVPSRFSGSGSGTDYTLTISSLQPEDFATYYCQHFWSSPYTFGGGTKVEIK",< 0.075
15,"humanized 16H11-derived Fab, VH AK444-2 / VL AK418-2 (Fab, V domains shown, Measured as monovalent Fab; also called No. 24; VH444-2 and VL418-2) VH: QVQLVQSGAEVKKPGSSVKVSCKASGYDFSNFWMNWVRQAPGQGLEWMGQIYPGDGEIKYNQKFQGRVTITADESTSTAYMELSSLRSEDTAVYFCARDDYLRAMDYWGQGTLVTVSS VL: DIQMTQSPSSLSASVGDRVTITCRASGNIHNYLAWYQQKPGKAPKFLLYSAKRLESGVPSRFSGSGSGTDYTLTISSLQPEDFATYYCQHFWSSPYTFGGGTKVEIK",< 0.075
16,"humanized 16H11-derived Fab, VH AK445-3 / VL AK418-2 (Fab, V domains shown, Measured as monovalent Fab; also called No. 25; VH445-3 and VL418-2) VH: QVQLVQSGAEVKKPGSSVKVSCKASGYDFSNFWMNWVRQAPGQGLEWMGQIYPGDGEIKYNQKFQGRVTLTADESTSTAYMELSSLRSEDTAVYYCARDDYLRAMDIWGQGTMVTVSS VL: DIQMTQSPSSLSASVGDRVTITCRASGNIHNYLAWYQQKPGKAPKFLLYSAKRLESGVPSRFSGSGSGTDYTLTISSLQPEDFATYYCQHFWSSPYTFGGGTKVEIK",< 0.075
17,"humanized 16H11-derived Fab, VH AK446-7 / VL AK419-2 (Fab, V domains shown, Measured as monovalent Fab; also called No. 37) VH: QVQLVQSGAEVKKPGSSVKVSCKASGYDFSNFWMNWVRQAPGQGLEWMGQIYPGDGEIKYNQKFQGRVTITADESTSTAYMELSSLRSEDTAVYYCARDDYLRAMDIWGQGTMVTVSS VL: DIQMTQSPSSLSASVGDRVTITCRASQNIHNYLAWYQQKPGKAPKFLLYSAKRLESGVPSRFSGSGSGTDYTLTISSLQPEDFATYYCQHFWSSPYTFGGGTKVEIK",> 0.5
18,"humanized 16H11-derived Fab, VH AK446-7 / VL AK448-3 (Fab, V domains shown, Measured as monovalent Fab; also called No. 34; AK446-7/AK448-3) VH: QVQLVQSGAEVKKPGSSVKVSCKASGYDFSNFWMNWVRQAPGQGLEWMGQIYPGDGEIKYNQKFQGRVTITADESTSTAYMELSSLRSEDTAVYYCARDDYLRAMDIWGQGTMVTVSS VL: DIQMTQSPSSLSASVGDRVTITCRASQNIHNYLAWYQQKPGKAPKFLLYSAKRLESGVPSRFSGSGSGTDYTLTISSLQPEDFATYYCQHFWSSPYTFGQGTKLEIK",< 0.075
19,"humanized 16H11-derived Fab, VH AK447-2 / VL AK418-2 (Fab, V domains shown, Measured as monovalent Fab; also called No. 26) VH: QVQLVQSGAEVKKPGSSVKVSCKASGYDFSNFWMNWVRQAPGQGLEWMGQIYPGDGEINYNQKFQGRVTITADESTSTAYMELSSLRSEDTAVYYCARDDYLRAMDIWGQGTMVTVSS VL: DIQMTQSPSSLSASVGDRVTITCRASGNIHNYLAWYQQKPGKAPKFLLYSAKRLESGVPSRFSGSGSGTDYTLTISSLQPEDFATYYCQHFWSSPYTFGGGTKVEIK",0.075 to 0.15
20,"humanized 16H11-derived Fab, VH AK447-2 / VL AK448-3 (Fab, V domains shown, Measured as monovalent Fab; also called No. 27) VH: QVQLVQSGAEVKKPGSSVKVSCKASGYDFSNFWMNWVRQAPGQGLEWMGQIYPGDGEINYNQKFQGRVTITADESTSTAYMELSSLRSEDTAVYYCARDDYLRAMDIWGQGTMVTVSS VL: DIQMTQSPSSLSASVGDRVTITCRASQNIHNYLAWYQQKPGKAPKFLLYSAKRLESGVPSRFSGSGSGTDYTLTISSLQPEDFATYYCQHFWSSPYTFGQGTKLEIK",0.075 to 0.15
21,"humanized 16H11-derived Fab, VH AK449-4 / VL AK418-2 (Fab, V domains shown, Measured as monovalent Fab; also called No. 28) VH: QVQLVQSGAEVKKPGSSVKVSCKASGYDFSNFWMNWVRQAPGQGLEWMGGIYPGDGEIKYNQKFQGRVTITADESTSTAYMELSSLRSEDTAVYYCARDDYLRAMDIWGQGTMVTVSS VL: DIQMTQSPSSLSASVGDRVTITCRASGNIHNYLAWYQQKPGKAPKFLLYSAKRLESGVPSRFSGSGSGTDYTLTISSLQPEDFATYYCQHFWSSPYTFGGGTKVEIK",0.075 to 0.15
22,"humanized 16H11-derived Fab, VH AK449-4 / VL AK448-3 (Fab, V domains shown, Measured as monovalent Fab; also called No. 29; VH449-4 and VL448-3) VH: QVQLVQSGAEVKKPGSSVKVSCKASGYDFSNFWMNWVRQAPGQGLEWMGGIYPGDGEIKYNQKFQGRVTITADESTSTAYMELSSLRSEDTAVYYCARDDYLRAMDIWGQGTMVTVSS VL: DIQMTQSPSSLSASVGDRVTITCRASQNIHNYLAWYQQKPGKAPKFLLYSAKRLESGVPSRFSGSGSGTDYTLTISSLQPEDFATYYCQHFWSSPYTFGQGTKLEIK",< 0.1
